[ ]: non-standard residue; d: D form. pS = N[C@@H](COP(=O)(O)O)C(=O)O; FAM = 5,6-carboxyfluorescein; Ahx = NCCCCCC(=O)O
T1: 14‐3‐3β (human, UniProt P31946 1-246)
T1 construct: 14-3-3 beta, human, full-length protein from the pProEx HTb-His-14-3-3 construct; Written as the protomer; tag removal is told only for the ∆C proteins; source: E. coli BL21(DE3), purified (Ni2+-NTA, dialysis)
T1 sequence (looked up): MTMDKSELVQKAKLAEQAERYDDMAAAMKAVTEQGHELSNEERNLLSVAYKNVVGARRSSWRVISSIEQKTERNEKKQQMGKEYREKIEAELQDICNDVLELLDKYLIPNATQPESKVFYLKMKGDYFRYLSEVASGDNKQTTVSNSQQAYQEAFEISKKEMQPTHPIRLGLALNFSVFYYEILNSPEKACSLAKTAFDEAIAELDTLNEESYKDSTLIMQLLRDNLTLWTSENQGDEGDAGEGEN

T2: 14‐3‐3σ (human, UniProt P31947 1-248)
T2 construct: 14-3-3 sigma, human, full-length protein from the pProEx HTb-His-14-3-3 construct (used in the FA assays); Written as the protomer; tag removal is told only for the ∆C proteins; source: E. coli BL21(DE3), purified (Ni2+-NTA, dialysis)
T2 sequence (looked up): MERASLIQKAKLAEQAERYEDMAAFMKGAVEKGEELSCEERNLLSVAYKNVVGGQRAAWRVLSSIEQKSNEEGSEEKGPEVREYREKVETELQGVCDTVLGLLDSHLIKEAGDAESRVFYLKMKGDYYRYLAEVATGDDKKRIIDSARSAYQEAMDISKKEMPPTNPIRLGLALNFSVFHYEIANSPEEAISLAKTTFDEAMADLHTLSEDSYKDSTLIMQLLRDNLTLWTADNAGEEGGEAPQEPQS

T3: 14‐3‐3η (human, UniProt Q04917 1-246)
T3 construct: 14-3-3 eta, human, full-length protein from the pProEx HTb-His-14-3-3 construct; Captured on an NTA chip in SPR; source: E. coli BL21(DE3), purified (Ni2+-NTA, dialysis)
T3 sequence (looked up): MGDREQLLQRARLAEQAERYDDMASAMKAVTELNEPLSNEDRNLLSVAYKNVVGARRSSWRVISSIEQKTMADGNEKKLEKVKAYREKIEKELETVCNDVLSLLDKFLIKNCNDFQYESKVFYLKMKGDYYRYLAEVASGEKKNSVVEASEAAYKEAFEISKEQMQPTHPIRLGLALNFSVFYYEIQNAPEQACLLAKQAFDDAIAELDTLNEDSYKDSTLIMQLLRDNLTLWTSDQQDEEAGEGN

T4: 14‐3‐3γ (human, UniProt P61981 1-247)
T4 construct: 14-3-3 gamma, human, full-length protein from the pProEx HTb-His-14-3-3 construct; Written as the protomer; tag removal is told only for the ∆C proteins; source: E. coli BL21(DE3), purified (Ni2+-NTA, dialysis)
T4 sequence (looked up): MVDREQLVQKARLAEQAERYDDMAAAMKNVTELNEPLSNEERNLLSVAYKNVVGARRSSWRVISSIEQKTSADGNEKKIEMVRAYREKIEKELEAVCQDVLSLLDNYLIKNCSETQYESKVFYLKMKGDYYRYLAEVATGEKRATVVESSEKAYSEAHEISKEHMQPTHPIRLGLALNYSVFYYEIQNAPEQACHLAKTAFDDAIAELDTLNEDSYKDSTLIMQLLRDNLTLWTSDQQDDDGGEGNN

T5: 14‐3‐3ζ (human, UniProt P63104 1-245)
T5 construct: 14-3-3 zeta, human, full-length protein from the pProEx HTb-His-14-3-3 construct; Written as the protomer; tag removal is told only for the ∆C proteins; source: E. coli BL21(DE3), purified (Ni2+-NTA, dialysis)
T5 sequence (looked up): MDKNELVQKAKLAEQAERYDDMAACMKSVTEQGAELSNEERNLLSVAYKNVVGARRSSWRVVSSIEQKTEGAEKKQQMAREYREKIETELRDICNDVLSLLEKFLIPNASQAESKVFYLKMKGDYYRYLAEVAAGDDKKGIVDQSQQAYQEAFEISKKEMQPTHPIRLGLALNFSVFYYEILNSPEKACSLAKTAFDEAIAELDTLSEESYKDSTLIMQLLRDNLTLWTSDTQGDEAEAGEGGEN


What was measured:
Experiment in all cases: fluorescence polarisation; fluorescence anisotropy, direct titration: 14-3-3 protein titrated (1/2 dilution series) against 50 nM FAM-Ahx tracer peptide; 10 mM HEPES, 150 mM NaCl, 0.1% Tween 20, 0.1% BSA, pH 7.4; 384 well plates, triplicates; protein concentration as 14-3-3 monomer; 1:1 fit, biphasic curves fitted as two separate 1:1 events (Kd1, Kd2)
Conditions in all cases: both partners purified
14‐3‐3β = biological target: T1, 14‐3‐3β
14‐3‐3σ = biological target: T2, 14‐3‐3σ
14‐3‐3η = biological target: T3, 14‐3‐3η
14‐3‐3γ = biological target: T4, 14‐3‐3γ
14‐3‐3ζ = biological target: T5, 14‐3‐3ζ

| Kd (14‐3‐3β) [µM] | Kd (14‐3‐3σ) [µM] | Kd (14‐3‐3η) [µM] | Kd (14‐3‐3γ) [µM] | Kd (14‐3‐3ζ) [µM] | Binder |
| --- | --- | --- | --- | --- | --- |
| 208 ± 6.3 | > 170 | 31.6 ± 1.9 | 82.9 ± 2.1 | 166 ± 5.6 | {FAM-Ahx}-QRKRHK[pS]DSISLS-NH2 (hDM2 (human double minute 2 protein), human, residues 180-192; Tracer form used in the FA assays; source: synthetic peptide (Fmoc SPPS, HPLC purified)) [FAM‐Ahx‐hDM2_(180‐192) ^pSer186] |
| 0.51 ± 0.02 | 3.6 ± 0.4 | 0.099 ± 0.005 | 0.53 ± 0.04 | 0.92 ± 0.03 | {FAM-Ahx}-DCRRTI[pS]APVVRPK-NH2 (Tracer form used in the FA assays; source: synthetic peptide (Fmoc SPPS, HPLC purified)) [FAM‐Ahx‐hDMX_(361‐374) ^pSer367] |
| 49.4 ± 11.5 | 136 ± 3.6 | 20 ± 1.2 | 37.8 ± 0.7 | 95.8 ± 3.6 | {FAM-Ahx}-SKLTHSL[pS]TSDITAI-NH2 (hDMX (human double minute 4 protein, hDM4), human, residues 335-349; Tracer form used in the FA assays; source: synthetic peptide (Fmoc SPPS, HPLC purified)) [FAM‐Ahx‐hDMX_(335‐349) ^pSer342] |
| 11.1 ± 0.5 | 32.7 ± 1.4 | 10.2 ± 0.3 | 3.9 ± 0.3 | 19.6 ± 0.2 | {FAM-Ahx}-SRRRAI[pS]ETEEN-NH2 (hDM2 (human double minute 2 protein), human, residues 160-171; Tracer form used in the FA assays; also called hDM2_(160‐171) ^Ser166; source: synthetic peptide (Fmoc SPPS, HPLC purified)) [FAM‐Ahx‐hDM2_(160‐171) ^pSer166] |

— paper PMC9541495, “Understanding the interaction of 14‐3‐3 proteins with hDMX and hDM2: a structural and biophysical study” (The Febs Journal, 2022)
